Values joined by “and” are separate entries in the source; they are usually repeats but may differ in a detail not shown here. Equal values may be shown once.
Assays:
[1] = target: T1, human PD-1, full-length, expressed on cells (human (Homo sapiens), UniProt Q15116 25-288); assay: cell-based or functional assay
[2] = target: T1, human PD-1, full-length, expressed on …; assay: cell-based or functional assay; remark: listed apart in the source

T1 sequence (Q15116 25-288): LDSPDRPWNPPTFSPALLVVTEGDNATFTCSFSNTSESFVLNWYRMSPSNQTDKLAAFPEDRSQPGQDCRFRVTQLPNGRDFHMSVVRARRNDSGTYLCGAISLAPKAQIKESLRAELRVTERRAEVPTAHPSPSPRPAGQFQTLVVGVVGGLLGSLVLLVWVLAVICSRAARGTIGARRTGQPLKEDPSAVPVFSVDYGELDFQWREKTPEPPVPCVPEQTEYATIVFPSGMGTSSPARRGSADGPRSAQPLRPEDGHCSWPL

B1: IgG1-PD1 (antibody)
heavy: QVQLVESGGGLVQPGTSLRLSCSVSGFSLYSYNMGWVRQAPGKGLEYIGIISGGTIGHYASWAKGRFTISRDTSKTTLYLQMNSLTTEDTATYFCARAFYDDYDYNVWGPGTLVTVSSASTKGPSVFPLAPSSKSTSGGTAALGCLVKDYFPEPVTVSWNSGALTSGVHTFPAVLQSSGLYSLSSVVTVPSSSLGTQTYICNVNHKPSNTKVDKRVEPKSCDKTHTCPPCPAPEFERGPSVFLFPPKPKDTLMISRTPEVTCVVVDVSHEDPEVKFNWYVDGVEVHNAKTKPREEQYNSTYRVVSVLTVLHQDWLNGKEYKCKVSNKALPAPIEKTISKAKGQPREPQVYTLPPSREEMTKNQVSLTCLVKGFYPSDIAVEWESNGQPENNYKTTPPVLDSDGSFFLYSKLTVDKSRWQQGNVFSCSVMHEALHNHYTQKSLSLSPG
light: AIQLTQSPSSLSASVGGTVTITCQSSQSVYGNNQLSWYQQKPGQPPKLLIYQASKLETGVPSRFRGSGSGTQFTLTISSLQSEDFATYYCAGGYSSSSDTTFGGGTEVVVKRTVAAPSVFIFPPSDEQLKSGTASVVCLLNNFYPREAKVQWKVDNALQSGNSQESVTEQDSKDSTYSLSSTLTLSKADYEKHKVYACEVTHQGLSSPVTKSFNRGEC
- EC50 of PD-1/PD-L1 checkpoint blockade, bioluminescent cell-based reporter assay [1]: 0.165 µg/mL and 1.12 nM
- EC50 in the antigen-specific proliferation assay (CD8+ T-cell expansion index) [2]: 0.0124 µg/mL and 0.0837 nM
